Here are results for four molecules from article PMC3863973 (Nature Communications, 2013).

What is called stoichiometry N is the number of molecules, sites or subunits per partner or assembly.

B1: FLAG-tagged KaiC-WT (enzyme)
chain: MTSAEMTSPNNNSEHQAIAKMRTMIEGFDDISHGGLPIGRSTLVSGTSGTGKTLFSIQFLYNGIIEFDEPGVFVTFEETPQDIIKNARSFGWDLAKLVDEGKLFILDASPDPEGQEVVGGFDLSALIERINYAIQKYRARRVSIDSVTSVFQQYDASSVVRRELFRLVARLKQIGATTVMTTERIEEYGPIARYGVEEFVSDNVVILRNVLEGERRRRTLEILKLRGTSHMKGEYPFTITDHGINIFPLGAMRLTQRSSNVRVSSGVVRLDEMCGGGFFKDSIILATGATGTGKTLLVSRFVENACANKERAILFAYEESRAQLLRNAYSWGMDFEEMERQNLLKIVCAYPESAGLEDHLQIIKSEINDFKPARIAIDSLSALARGVSNNAFRQFVIGVTGYAKQEEITGLFTNTSDQFMGAHSITDSHISTITDTIILLQYVEIRGEMSRAINVFKMRGSWHDKAIREFMISDKGPDIKDSFRNFERIISGSPTRITVDEKSELSRIVRGVQEKGPES
B2: His-tagged KaiC-AA (enzyme)
chain: MTSAEMTSPNNNSEHQAIAKMRTMIEGFDDISHGGLPIGRSTLVSGTSGTGKTLFSIQFLYNGIIEFDEPGVFVTFEETPQDIIKNARSFGWDLAKLVDEGKLFILDASPDPEGQEVVGGFDLSALIERINYAIQKYRARRVSIDSVTSVFQQYDASSVVRRELFRLVARLKQIGATTVMTTERIEEYGPIARYGVEEFVSDNVVILRNVLEGERRRRTLEILKLRGTSHMKGEYPFTITDHGINIFPLGAMRLTQRSSNVRVSSGVVRLDEMCGGGFFKDSIILATGATGTGKTLLVSRFVENACANKERAILFAYEESRAQLLRNAYSWGMDFEEMERQNLLKIVCAYPESAGLEDHLQIIKSEINDFKPARIAIDSLSALARGVSNNAFRQFVIGVTGYAKQEEITGLFTNTSDQFMGAHSITDSHIAAITDTIILLQYVEIRGEMSRAINVFKMRGSWHDKAIREFMISDKGPDIKDSFRNFERIISGSPTRITVDEKSELSRIVRGVQEKGPES
B3: His-tagged KaiC-AE (enzyme)
chain: MTSAEMTSPNNNSEHQAIAKMRTMIEGFDDISHGGLPIGRSTLVSGTSGTGKTLFSIQFLYNGIIEFDEPGVFVTFEETPQDIIKNARSFGWDLAKLVDEGKLFILDASPDPEGQEVVGGFDLSALIERINYAIQKYRARRVSIDSVTSVFQQYDASSVVRRELFRLVARLKQIGATTVMTTERIEEYGPIARYGVEEFVSDNVVILRNVLEGERRRRTLEILKLRGTSHMKGEYPFTITDHGINIFPLGAMRLTQRSSNVRVSSGVVRLDEMCGGGFFKDSIILATGATGTGKTLLVSRFVENACANKERAILFAYEESRAQLLRNAYSWGMDFEEMERQNLLKIVCAYPESAGLEDHLQIIKSEINDFKPARIAIDSLSALARGVSNNAFRQFVIGVTGYAKQEEITGLFTNTSDQFMGAHSITDSHIAEITDTIILLQYVEIRGEMSRAINVFKMRGSWHDKAIREFMISDKGPDIKDSFRNFERIISGSPTRITVDEKSELSRIVRGVQEKGPES
B4: His-tagged KaiC-DA (enzyme)
chain: MTSAEMTSPNNNSEHQAIAKMRTMIEGFDDISHGGLPIGRSTLVSGTSGTGKTLFSIQFLYNGIIEFDEPGVFVTFEETPQDIIKNARSFGWDLAKLVDEGKLFILDASPDPEGQEVVGGFDLSALIERINYAIQKYRARRVSIDSVTSVFQQYDASSVVRRELFRLVARLKQIGATTVMTTERIEEYGPIARYGVEEFVSDNVVILRNVLEGERRRRTLEILKLRGTSHMKGEYPFTITDHGINIFPLGAMRLTQRSSNVRVSSGVVRLDEMCGGGFFKDSIILATGATGTGKTLLVSRFVENACANKERAILFAYEESRAQLLRNAYSWGMDFEEMERQNLLKIVCAYPESAGLEDHLQIIKSEINDFKPARIAIDSLSALARGVSNNAFRQFVIGVTGYAKQEEITGLFTNTSDQFMGAHSITDSHIDAITDTIILLQYVEIRGEMSRAINVFKMRGSWHDKAIREFMISDKGPDIKDSFRNFERIISGSPTRITVDEKSELSRIVRGVQEKGPES

In experiment [1] the target is mutant KaiC (His-tagged KaiC-AA, -DE, -DA or -AE, as a group). Kind of experiment: pull-down.
The experiment “His-tagged KaiC-AA” deals with B2. As to the kind of experiment: pull-down.
The target in the experiment “His-tagged KaiC-AE” is B3. Kind of experiment: pull-down.
The experiment “His-tagged KaiC-DA” has as its target B4. As to the kind of experiment: pull-down.
The target of the next experiment is T1, His-tagged KaiC-WT (Synechococcus elongatus PCC 7942, UniProt Q79PF4 1-519).
T1 sequence: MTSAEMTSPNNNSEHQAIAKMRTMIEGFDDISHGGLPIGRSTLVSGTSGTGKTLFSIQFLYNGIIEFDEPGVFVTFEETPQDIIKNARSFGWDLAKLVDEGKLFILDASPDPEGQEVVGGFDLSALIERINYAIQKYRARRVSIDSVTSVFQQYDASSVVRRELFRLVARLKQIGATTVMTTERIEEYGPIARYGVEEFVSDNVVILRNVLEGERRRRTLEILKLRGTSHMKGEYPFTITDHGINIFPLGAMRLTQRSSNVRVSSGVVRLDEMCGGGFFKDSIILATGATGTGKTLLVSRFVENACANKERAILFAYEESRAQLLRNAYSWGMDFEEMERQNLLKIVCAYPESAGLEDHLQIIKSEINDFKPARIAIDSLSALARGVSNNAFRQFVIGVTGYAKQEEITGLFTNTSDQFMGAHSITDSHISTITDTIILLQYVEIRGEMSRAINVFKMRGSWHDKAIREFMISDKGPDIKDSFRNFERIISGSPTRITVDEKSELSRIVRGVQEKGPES
Kind of experiment: pull-down.

A further experiment addresses T2, FLAG-tagged KaiC-E318Q (Synechococcus elongatus PCC 7942, UniProt Q79PF4 1-519, E318Q).
T2 sequence: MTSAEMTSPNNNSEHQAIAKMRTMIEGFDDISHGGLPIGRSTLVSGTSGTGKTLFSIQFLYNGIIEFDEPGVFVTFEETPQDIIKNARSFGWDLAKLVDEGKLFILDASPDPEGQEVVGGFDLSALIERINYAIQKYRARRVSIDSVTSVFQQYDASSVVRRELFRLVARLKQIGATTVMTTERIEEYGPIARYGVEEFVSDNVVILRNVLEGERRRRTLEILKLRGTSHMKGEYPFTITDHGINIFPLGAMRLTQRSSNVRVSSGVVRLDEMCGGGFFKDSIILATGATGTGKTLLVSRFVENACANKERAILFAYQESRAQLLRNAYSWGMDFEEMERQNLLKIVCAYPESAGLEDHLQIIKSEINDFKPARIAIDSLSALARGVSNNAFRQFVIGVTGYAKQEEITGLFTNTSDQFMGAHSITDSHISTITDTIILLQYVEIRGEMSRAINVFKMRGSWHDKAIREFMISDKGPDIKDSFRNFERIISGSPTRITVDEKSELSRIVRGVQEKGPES
Kind of experiment: co-IP.

In the experiment “FLAG-tagged KaiC-WT” the target is B1. Kind of experiment: co-IP.

Turning to B1, the stoichiometry N in experiment [1] is 4 to 5. The binding result in the experiment with His-tagged KaiC-AA, with His-tagged KaiC-AE, with His-tagged KaiC-DA and with His-tagged KaiC-WT was “binds” each time.

On to B2, for which the “stoichiometry N” value with FLAG-tagged KaiC-E318Q was found to be 1.

Regarding B3, in the experiment with FLAG-tagged KaiC-WT, the “stoichiometry N” value is ~1.

On to B4, for which, in the experiment with FLAG-tagged KaiC-WT, the “stoichiometry N” value is ~1.
